In patent publication US11672792B2, “Topical formulations comprising montelukast and combinations with mussel adhesive proteins” (ENLITISA (SHANGHAI) PHARMACEUTICAL CO., LTD, priority 2017, dated 2023):
Several values for one entry are separate records, joined by “and”; a condition that tells them apart may be missing. Equal values may be shown once.

Tests used:
[1] = test system: full thickness skin wounds; assay: Acute Wound Model (Example 6); assay type: in vivo, C57BL/6 mice
Experimental: 6-8 weeks old male C57BL/6 mice were supplied by Changzhou Cvens Experimental Animal Co. Ltd. Prior to any experiments being conducted, mice were housed under standardized conditions (at a constant temperature or 22±2° C., with alternating 12 hour periods of light and darkness), and were fed on a standard mouse diet with water, for about a week. […] The hair on the back was shaved by a baby hair shaver and depilated with cream. […] EMS skin biopsy punch (Electron Microscopy Sciences, P.O. […] Full thickness skin was removed and the depth reached the fascia. The wounds left open without suture. […] The model group was given same amount of normal saline. Recombinant Human Epidermal Growth Factor (rhEGF, Shanghai Haohai Biological Technology Co. Ltd, Shanghai, China) was purchased and prepared according to the manufacturer's instructions. Lyophilized rhEGF powder (100000 IU/vial) was dissolved in 20 mL of normal saline to make a solution with a 5000 IU/mL concentration. […] MedChemExpress, MCE China, Shanghai, China) was obtained in a powder form and was dissolved in ultrapure water to obtain solutions with concentrations as described in Table 22 (L, M and H indicate low, medium and high montelukast doses, respectively) Wounds were wrapped up with transparent dresser after drug administration. Photographs were taken for each wound every other day from Day 0. Photos were scanned into a computer, and wound areas calculated using ImageJ image analysis software (National Institutes of Health, […]). The unhealed wound area was expressed as a percentage of the original wound area: At/A0×100%, where A0 and At refer to the initial area at Day 0 and the wound area at the date of measurement (time t), respectively. […] Half of the tissue was preserved in 10% neutral buffered formalin (Nanchang […] Experimental Equipment Co., Ltd., Nanchang, […] Provence, China), and analyzed by histological embedding in paraffin wax, sectioning and staining. HE and Masson stained paraffin sections were analyzed under an optical microscope. Skin regeneration, fibroblastic proliferation, collagen regeneration scores and inflammation scores were estimated. The rest of the samples were stored at -80° C. for further analysis. […] The supernatant was collected, and the extracted protein was used for ELISA analysis using standard ELISA test kits and an ELISA reader (SH-1000 Hitachi, Japan). […] (Beijing, China).

[2] = test system: full thickness skin wounds in diabetic mice; assay: Diabetic Wound Model (Example 7); assay type: in vivo, db/db mice (C57BL/KsJ-db/db); conditions: Day 6; wound tissue; rhEGF 100 IU/each, Mon 100 μg/each, once daily topically
Experimental: A similar experiment with essentially the same protocol to that described in Example 6 above was carried out on 8 to 12 week-old male db/db mice (C57BL/KsJ-db/db, with a body weight of 35-45 g/mouse; supplied by Changzhou Cvens Experimental Animal Co. Ltd.).
An EMS skin biopsy punch with a […] diameter was used to make wounds.
Different drugs were administrated topically at 20 μL/wound, once daily from Day 0 to Day 18. The model group was given same amount of normal saline.
Samples were taken on Day 6, Day 12 and Day 18 post-wound inflictions.
Histological specimens were analyzed and skin regeneration, fibroblast proliferation, collagen regeneration scores (Masson score) and inflammation scores were estimated as follows.
The HE and Masson stained slices were observed under an optical microscope and were scored (1, 2 or 3 points) according to the following criteria. […]
Fibroblast proliferation was scored as the following criteria:
Inflammation was scored as the following criteria:
Collagen deposition score criterion for the Masson stained sample were as follows. […] No clear blue staining was given 0 points; blue fiber appearing in a scattered pattern was scored as 1 points; if more blue fiber appeared, this was scored as 2 points, and a diffuse blue colour was given 3 points.

[3] = wound tissue, rhEGF 100 IU/wound

B1: rhEGF: Recombinant Human Epidermal Growth Factor, 5000 IU/mL in normal saline (protein, UniProt P01133 23-1207, looked up)
Pro-epidermal growth factor: PQHWSCPEGTLAGNGNSTCVGPAPFLIFSHGNSIFRIDTEGTNYEQLVVDAGVSVIMDFHYNEKRIYWVDLERQLLQRVFLNGSRQERVCNIEKNVSGMAINWINEEVIWSNQQEGIITVTDMKGNNSHILLSALKYPANVAVDPVERFIFWSSEVAGSLYRADLDGVGVKALLETSEKITAVSLDVLDKRLFWIQYNREGSNSLICSCDYDGGSVHISKHPTQHNLFAMSLFGDRIFYSTWKMKTIWIANKHTGKDMVRINLHSSFVPLGELKVVHPLAQPKAEDDTWEPEQKLCKLRKGNCSSTVCGQDLQSHLCMCAEGYALSRDRKYCEDVNECAFWNHGCTLGCKNTPGSYYCTCPVGFVLLPDGKRCHQLVSCPRNVSECSHDCVLTSEGPLCFCPEGSVLERDGKTCSGCSSPDNGGCSQLCVPLSPVSWECDCFPGYDLQLDEKSCAASGPQPFLLFANSQDIRHMHFDGTDYGTLLSQQMGMVYALDHDPVENKIYFAHTALKWIERANMDGSQRERLIEEGVDVPEGLAVDWIGRRFYWTDRGKSLIGRSDLNGKRSKIITKENISQPRGIAVHPMAKRLFWTDTGINPRIESSSLQGLGRLVIASSDLIWPSGITIDFLTDKLYWCDAKQSVIEMANLDGSKRRRLTQNDVGHPFAVAVFEDYVWFSDWAMPSVMRVNKRTGKDRVRLQGSMLKPSSLVVVHPLAKPGADPCLYQNGGCEHICKKRLGTAWCSCREGFMKASDGKTCLALDGHQLLAGGEVDLKNQVTPLDILSKTRVSEDNITESQHMLVAEIMVSDQDDCAPVGCSMYARCISEGEDATCQCLKGFAGDGKLCSDIDECEMGVPVCPPASSKCINTEGGYVCRCSEGYQGDGIHCLDIDECQLGEHSCGENASCTNTEGGYTCMCAGRLSEPGLICPDSTPPPHLREDDHHYSVRNSDSECPLSHDGYCLHDGVCMYIEALDKYACNCVVGYIGERCQYRDLKWWELRHAGHGQQQKVIVVAVCVVVLVMLLLLSLWGAHYYRTQKLLSKNPKNPYEESSRDVRSRRPADTEDGMSSCPQPWFVVIKEHQDLKNGGQPVAGEDGQAADGSMQPTSWRQEPQLCGMGTEQGCWIPVSSDKGSCPQVMERSFHMPSYGTQTLEGGVEKPHSLLSANPLWQQRALDPPHQMELTQ
modifications: Pro-epidermal growth factor
notes: Recombinant Human Epidermal Growth Factor, 5000 IU/mL in normal saline
remaining wound area versus the initial wound ([1]; Day 2, rhEGF 100 IU/wound once daily topically): 85.73 ± 10.29% | remaining wound area versus the initial wound ([1]; Day 4, rhEGF 100 IU/wound): 68.15 ± 16.47% | remaining wound area versus the initial wound ([1]; Day 6, rhEGF 100 IU/wound): 30.85 ± 1.87% | remaining wound area versus the initial wound ([1]; Day 8, rhEGF 100 IU/wound): 16.93 ± 4.03% | remaining wound area versus the initial wound ([1]; Day 12, rhEGF 100 IU/wound): 5.02 ± 3.03% | Hyp content (μg/mg tissue weight), single animals [1, 3]: 6.54 μg/mg tissue weight and 4.89 μg/mg tissue weight and 5.39 μg/mg tissue weight and 5.45 μg/mg tissue weight | Hyp content, Mean (n = 4) [1, 3]: 5.57 μg/mg tissue weight | VEGF content, Mean [2]: 4.55 pg/g
